Results on 5 molecules are retold here after PMC3859580, “The PS1 Hairpin of Mcm3 Is Essential for Viability and for DNA Unwinding In Vitro” (PLoS ONE, 2013).

B1: Mcm3 (wild type), subunit of Saccharomyces cerevisiae Mcm2-7 (natural protein, S. cerevisiae, UniProt P24279 1-971, looked up)
chain: MEGSTGFDGDATTFFAPDAVFGDRVRRFQEFLDTFTSYRDSVRSIQVYNSNNAANYNDDQDDADERDLLGDDDGDDLEKEKKAASSTSLNILPHRIIISLDDLREFDRSFWSGILVEPAYFIPPAEKALTDLADSMDDVPHPNASAVSSRHPWKLSFKGSFGAHALSPRTLTAQHLNKLVSVEGIVTKTSLVRPKLIRSVHYAAKTGRFHYRDYTDATTTLTTRIPTPAIYPTEDTEGNKLTTEYGYSTFIDHQRITVQEMPEMAPAGQLPRSIDVILDDDLVDKTKPGDRVNVVGVFKSLGAGGMNQSNSNTLIGFKTLILGNTVYPLHARSTGVAARQMLTDFDIRNINKLSKKKDIFDILSQSLAPSIYGHDHIKKAILLMLMGGVEKNLENGSHLRGDINILMVGDPSTAKSQLLRFVLNTASLAIATTGRGSSGVGLTAAVTTDRETGERRLEAGAMVLADRGVVCIDEFDKMTDVDRVAIHEVMEQQTVTIAKAGIHTTLNARCSVIAAANPVFGQYDVNRDPHQNIALPDSLLSRFDLLFVVTDDINEIRDRSISEHVLRTHRYLPPGYLEGEPVRERLNLSLAVGEDADINPEEHSNSGAGVENEGEDDEDHVFEKFNPLLQAGAKLAKNKGNYNGTEIPKLVTIPFLRKYVQYAKERVIPQLTQEAINVIVKNYTDLRNDDNTKKSPITARTLETLIRLATAHAKVRLSKTVNKVDAKVAANLLRFALLGEDIGNDIDEEESEYEEALSKRSPQKSPKKRQRVRQPASNSGSPIKSTPRRSTASSVNATPSSARRILRFQDDEQNAGEDDNDIMSPLPADEEAELQRRLQLGLRVSPRRREHLHAPEEGSSGPLTEVGTPRLPNVSSAGQDDEQQQSVISFDNVEPGTISTGRLSLISGIIARLMQTEIFEEESYPVASLFERINEELPEEEKFSAQEYLAGLKIMSDRNNLMVADDKVWRV
notes: source: E. coli, purified, reconstituted into Mcm2-7 as described [27]
B2: Mcm3_(K499A), Mcm3 with the PS1 hairpin mutation (natural protein, S. cerevisiae, UniProt P24279 1-971, looked up)
chain: B1 chain with K499A
notes: Mcm3, S. cerevisiae, K499A; NdeI-SacI fragment of mcm3_(K499A)-YCplac111 in pET24a (pMD466); also called the Mcm3 subunit of Mcm2-7_(3K499A); source: E. coli BL21 DE3 Codon+, purified (ammonium sulfate, Q Sepharose, ssDNA-Sepharose, MonoQ, MonoS)
B3: Mcm4, subunit of Saccharomyces cerevisiae Mcm2-7 (natural protein, S. cerevisiae, UniProt P30665 1-933, looked up)
chain: MSQQSSSPTKEDNNSSSPVVPNPDSVPPQLSSPALFYSSSSSQGDIYGRNNSQNLSQGEGNIRAAIGSSPLNFPSSSQRQNSDVFQSQGRQGRIRSSASASGRSRYHSDLRSDRALPTSSSSLGRNGQNRVHMRRNDIHTSDLSSPRRIVDFDTRSGVNTLDTSSSSAPPSEASEPLRIIWGTNVSIQECTTNFRNFLMSFKYKFRKILDEREEFINNTTDEELYYIKQLNEMRELGTSNLNLDARNLLAYKQTEDLYHQLLNYPQEVISIMDQTIKDCMVSLIVDNNLDYDLDEIETKFYKVRPYNVGSCKGMRELNPNDIDKLINLKGLVLRSTPVIPDMKVAFFKCNVCDHTMAVEIDRGVIQEPARCERIDCNEPNSMSLIHNRCSFADKQVIKLQETPDFVPDGQTPHSISLCVYDELVDSCRAGDRIEVTGTFRSIPIRANSRQRVLKSLYKTYVDVVHVKKVSDKRLDVDTSTIEQELMQNKVDHNEVEEVRQITDQDLAKIREVAAREDLYSLLARSIAPSIYELEDVKKGILLQLFGGTNKTFTKGGRYRGDINILLCGDPSTSKSQILQYVHKITPRGVYTSGKGSSAVGLTAYITRDVDTKQLVLESGALVLSDGGVCCIDEFDKMSDSTRSVLHEVMEQQTISIAKAGIITTLNARSSILASANPIGSRYNPNLPVTENIDLPPPLLSRFDLVYLVLDKVDEKNDRELAKHLTNLYLEDKPEHISQDDVLPVEFLTMYISYAKEHIHPIITEAAKTELVRAYVGMRKMGDDSRSDEKRITATTRQLESMIRLAEAHAKMKLKNVVELEDVQEAVRLIRSAIKDYATDPKTGKIDMNLVQTGKSVIQRKLQEDLSREIMNVLKDQASDSMSFNELIKQINEHSQDRVESSDIQEALSRLQQEDKVIVLGEGVRRSVRLNNRV
notes: Mcm4, S. cerevisiae, recombinant subunit; source: E. coli, purified, reconstituted into Mcm2-7 as described [27]
B4: Mcm7, subunit of Saccharomyces cerevisiae Mcm2-7 (natural protein, S. cerevisiae, UniProt P38132 1-845, looked up)
chain: MSAALPSIQLPVDYNNLFNEITDFLVTFKQDTLSSDATRNENEDENLDAENIEQHLLEKGPKYMAMLQKVANRELNSVIIDLDDILQYQNEKFLQGTQADDLVSAIQQNANHFTELFCRAIDNNMPLPTKEIDYKDDVLDVILNQRRLRNERMLSDRTNEIRSENLMDTTMDPPSSMNDALREVVEDETELFPPNLTRRYFLYFKPLSQNCARRYRKKAISSKPLSVRQIKGDFLGQLITVRGIITRVSDVKPAVEVIAYTCDQCGYEVFQEVNSRTFTPLSECTSEECSQNQTKGQLFMSTRASKFSAFQECKIQELSQQVPVGHIPRSLNIHVNGTLVRSLSPGDIVDVTGIFLPAPYTGFKALKAGLLTETYLEAQFVRQHKKKFASFSLTSDVEERVMELITSGDVYNRLAKSIAPEIYGNLDVKKALLLLLVGGVDKRVGDGMKIRGDINVCLMGDPGVAKSQLLKAICKISPRGVYTTGKGSSGVGLTAAVMKDPVTDEMILEGGALVLADNGICCIDEFDKMDESDRTAIHEVMEQQTISISKAGINTTLNARTSILAAANPLYGRYNPRLSPLDNINLPAALLSRFDILFLMLDIPSRDDDEKLAEHVTYVHMHNKQPDLDFTPVEPSKMREYIAYAKTKRPVMSEAVNDYVVQAYIRLRQDSKREMDSKFSFGQATPRTLLGIIRLSQALAKLRLADMVDIDDVEEALRLVRVSKESLYQETNKSKEDESPTTKIFTIIKKMLQETGKNTLSYENIVKTVRLRGFTMLQLSNCIQEYSYLNVWHLINEGNTLKFVDDGTMDTDQEDSLVSTPKLAPQTTASANVSAQDSDIDLQDA
notes: Mcm7, S. cerevisiae, recombinant subunit; source: E. coli, purified, reconstituted into Mcm2-7 as described [27]
B5: Mcm2, subunit of Saccharomyces cerevisiae Mcm2-7 (natural protein, S. cerevisiae, UniProt P29469 1-868, looked up)
chain: MSDNRRRRREEDDSDSENELPPSSPQQHFRGGMNPVSSPIGSPDMINPEGDDNEVDDVPDIDEVEEQMNEVDLMDDNMYEDYAADHNRDRYDPDQVDDREQQELSLSERRRIDAQLNERDRLLRNVAYIDDEDEEQEGAAQLDEMGLPVQRRRRRRQYEDLENSDDDLLSDMDIDPLREELTLESLSNVKANSYSEWITQPNVSRTIARELKSFLLEYTDETGRSVYGARIRTLGEMNSESLEVNYRHLAESKAILALFLAKCPEEMLKIFDLVAMEATELHYPDYARIHSEIHVRISDFPTIYSLRELRESNLSSLVRVTGVVTRRTGVFPQLKYVKFNCLKCGSILGPFFQDSNEEIRISFCTNCKSKGPFRVNGEKTVYRNYQRVTLQEAPGTVPPGRLPRHREVILLADLVDVSKPGEEVEVTGIYKNNYDGNLNAKNGFPVFATIIEANSIKRREGNTANEGEEGLDVFSWTEEEEREFRKISRDRGIIDKIISSMAPSIYGHRDIKTAVACSLFGGVPKNVNGKHSIRGDINVLLLGDPGTAKSQILKYVEKTAHRAVFATGQGASAVGLTASVRKDPITKEWTLEGGALVLADKGVCLIDEFDKMNDQDRTSIHEAMEQQSISISKAGIVTTLQARCSIIAAANPNGGRYNSTLPLAQNVSLTEPILSRFDILCVVRDLVDEEADERLATFVVDSHVRSHPENDEDREGEELKNNGESAIEQGEDEINEQLNARQRRLQRQRKKEEEISPIPQELLMKYIHYARTKIYPKLHQMDMDKVSRVYADLRRESISTGSFPITVRHLESILRIAESFAKMRLSEFVSSYDLDRAIKVVVDSFVDAQKVSVRRQLRRSFAIYTLGH
notes: Mcm2, S. cerevisiae, recombinant subunit; source: E. coli, purified, reconstituted into Mcm2-7 as described [27]

Holding throughout (assay): SEC; individual purified Mcm subunits mixed in equal molar ratios to reconstitute the hexameric complex; elution from a gel filtration column, fractions analysed by SDS-PAGE
Holding throughout (settings): both partners purified
On the technique in general: SEC sorts molecules by how far they enter the pores of the column.

For assay [1], the target named is T1, Mcm6, subunit of Saccharomyces cerevisiae Mcm2-7 (S. cerevisiae, UniProt P53091 1-1017).
T1 construct: Mcm6, S. cerevisiae, recombinant subunit; source: E. coli, purified, reconstituted into Mcm2-7 as described [27]

In assay [2] the target is B1.
Assay [3] deals with B2.

Positions count from the first letter of the chain named. In names and notes the source's numbering stands.

T1 sequence (P53091 whole entry): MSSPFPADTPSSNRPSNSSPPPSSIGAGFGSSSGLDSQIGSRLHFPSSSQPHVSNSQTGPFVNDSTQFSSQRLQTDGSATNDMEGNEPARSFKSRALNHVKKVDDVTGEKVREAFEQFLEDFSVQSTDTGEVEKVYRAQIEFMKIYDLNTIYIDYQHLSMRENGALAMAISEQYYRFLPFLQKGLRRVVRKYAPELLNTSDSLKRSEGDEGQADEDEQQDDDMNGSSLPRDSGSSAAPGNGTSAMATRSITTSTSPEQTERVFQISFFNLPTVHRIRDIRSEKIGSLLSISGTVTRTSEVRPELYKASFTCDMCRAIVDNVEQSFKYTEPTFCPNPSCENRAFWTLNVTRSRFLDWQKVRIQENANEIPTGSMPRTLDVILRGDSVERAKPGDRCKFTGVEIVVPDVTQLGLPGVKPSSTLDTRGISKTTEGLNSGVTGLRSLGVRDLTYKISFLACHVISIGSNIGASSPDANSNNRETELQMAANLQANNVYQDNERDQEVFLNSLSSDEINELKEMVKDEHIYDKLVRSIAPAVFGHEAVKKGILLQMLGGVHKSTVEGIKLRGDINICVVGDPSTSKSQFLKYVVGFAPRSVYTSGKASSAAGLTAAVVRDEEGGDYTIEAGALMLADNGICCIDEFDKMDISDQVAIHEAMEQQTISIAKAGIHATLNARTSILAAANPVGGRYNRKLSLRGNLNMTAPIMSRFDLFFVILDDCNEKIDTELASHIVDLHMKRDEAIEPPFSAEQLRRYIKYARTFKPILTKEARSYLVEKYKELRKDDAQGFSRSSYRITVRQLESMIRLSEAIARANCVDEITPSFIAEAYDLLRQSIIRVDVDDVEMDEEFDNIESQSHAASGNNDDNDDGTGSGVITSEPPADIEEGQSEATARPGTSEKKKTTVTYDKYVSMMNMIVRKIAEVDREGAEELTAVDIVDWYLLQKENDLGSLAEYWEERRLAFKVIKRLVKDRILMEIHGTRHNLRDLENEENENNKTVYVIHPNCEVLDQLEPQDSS

With B1, the binding result in assay [1] is on record as “binds”.

For B2, the binding result in assay [1] is given as “binds”.

B3: the binding result in assay [2] and in assay [3] was “binds” in each case.

On to B4, for which the binding result in assay [2] and in assay [3] was “binds” each time.

With B5, the binding result in assay [2] and in assay [3] was “binds” throughout.
